Reference: article PMC8640019

Biological target: SH2B (human) (UniProt Q9NRF2)
Assay: ITC

JAK2 pY813 peptide
Ka: 1.45e+06 M⁻¹
Kd: 690 nM
stoichiometry N: 0.79
